# Measured values published in the supplement of paper PMC5998384.
# Tests used:
# HeLa Kyoto [1] = experiment: solubility change mitosis vs G1/S (difference of NP-40 vs SDS log2 ratios) (log2 ratio difference); higher = more soluble in mitosis
# HeLa Kyoto [2] = experiment: melting temperature (median over replicates), in situ; higher = more thermally stable
# HeLa Kyoto [3] = experiment: thermal stability score vs G1/S (z-score of summed log2 fold changes over temperatures); higher = more thermally stable than in G1/S
# HeLa Kyoto [4] = experiment: solubility in G1/S (NP-40 vs SDS abundance) (log2 ratio); higher = more soluble; conditions: cell cycle stage: G1/S
# [5] = cell cycle stage: early G1 (4.5 h after nocodazole release)
# 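For melting temperature (median over replicates), in situ in this document: HeLa Kyoto cells synchronized by double thymidine or nocodazole block, proteins quantified by TMT10plex mass spectrometry, three independent biological replicates.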
# 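For solubility change mitosis vs G1/S (difference of NP-40 vs SDS log2 ratios) in this document: synchronized HeLa Kyoto cells (double thymidine block for G1/S, nocodazole release for mitosis), protein amounts in NP-40 versus SDS lysates quantified by mass spectrometry, three biological replicates.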
# 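For solubility in G1/S (NP-40 vs SDS abundance) in this document: HeLa Kyoto cells arrested at G1/S by double thymidine block, proteins quantified by TMT10plex mass spectrometry in mild NP-40 versus SDS extracts, three biological replicates.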
# 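For thermal stability score vs G1/S (z-score of summed log2 fold changes over temperatures) in this document: synchronized HeLa Kyoto cells, proteins quantified by TMT10plex mass spectrometry, three biological replicates, mitosis taken 0.5 h after nocodazole release, G1/S directly after double thymidine block.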
Sequence,solubility change mitosis (log2) (HeLa Kyoto [1]),melting temperature (HeLa Kyoto [2]; cell cycle stage: G1/S) [°C],melting temperature (HeLa Kyoto [2]; cell cycle stage: mitosis) [°C],thermal stability score (HeLa Kyoto [3]; [5]),thermal stability score (HeLa Kyoto [3]; cell cycle stage: mitosis),solubility in G1/S (log2) (HeLa Kyoto [4])
MSPVLHFYVRPSGHEGAAPGHTRRKLQGKLPELQGVETELCYNVNWTAEALPSAEETKKLMWLFGCPLLLDDVARESWLLPGSNDLLLEVGPRLNFSTPTSTNIVSVCRATGLGPVDRVETTRRYRLSFAHPPSAEVEAIALATLHDRMTEQHFPHPIQSFSPESMPEPLNGPINILGEGRLALEKANQELGLALDSWDLDFYTKRFQELQRNPSTVEAFDLAQSNSEHSRHWFFKGQLHVDGQKLVHSLFESIMSTQESSNPNNVLKFCDNSSAIQGKEVRFLRPEDPTRPSRFQQQQGLRHVVFTAETHNFPTGVCPFSGATTGTGGRIRDVQCTGRGAHVVAGTAGYCFGNLHIPGYNLPWEDPSFQYPGNFARPLEVAIEASNGASDYGNKFGEPVLAGFARSLGLQLPDGQRREWIKPIMFSGGIGSMEADHISKEAPEPGMEVVKVGGPVYRIGVGGGAASSVQVQGDNTSDLDFGAVQRGDPEMEQKMNRVIRACVEAPKGNPICSLHDQGAGGNGNVLKELSDPAGAIIYTSRFQLGDPTLNALEIWGAEYQESNALLLRSPNRDFLTHVSARERCPACFVGTITGDRRIVLVDDRECPVRRNGQGDAPPTPLPTPVDLELEWVLGKMPRKEFFLQRKPPMLQPLALPPGLSVHQALERVLRLPAVASKRYLTNKVDRSVGGLVAQQQCVGPLQTPLADVAVVALSHEELIGAATALGEQPVKSLLDPKVAARLAVAEALTNLVFALVTDLRDVKCSGNWMWAAKLPGEGAALADACEAMVAVMAALGVAVDGGKDSLSMAARVGTETVRAPGSLVISAYAVCPDITATVTPDLKHPEGRGHLLYVALSPGQHRLGGTALAQCFSQLGEHPPDLDLPENLVRAFSITQGLLKDRLLCSGHDVSDGGLVTCLLEMAFAGNCGLQVDVPVPRVDVLSVLFAEEPGLVLEVQEPDLAQVLKRYRDAGLHCLELGHTGEAGPHAMVRVSVNGAVVLEEPVGELRALWEETSFQLDRLQAEPRCVAEEERGLRERMGPSYCLPPTFPKASVPREPGGPSPRVAILREEGSNGDREMADAFHLAGFEVWDVTMQDLCSGAIGLDTFRGVAFVGGFSYADVLGSAKGWAAAVTFHPRAGAELRRFRKRPDTFSLGVCNGCQLLALLGWVGGDPNEDAAEMGPDSQPARPGLLLRHNLSGRYESRWASVRVGPGPALMLRGMEGAVLPVWSAHGEGYVAFSSPELQAQIEARGLAPLHWADDDGNPTEQYPLNPNGSPGGVAGICSCDGRHLAVMPHPERAVRPWQWAWRPPPFDTLTTSPWLQLFINARNWTLEGSC [PFAS],-0.0731,51.9,51.5,-3.18,-3.7,0.146
MSPWSWFLLQTLCLLPTGAASRRGAPGTANCELKPQQSELNSFLWTIKRDPPSYFFGTIHVPYTRVWDFIPDNSKEAFLQSSIVYFELDLTDPYTISALTSCQMLPQGENLQDVLPRDIYCRLKRHLEYVKLMMPLWMTPDQRGKGLYADYLFNAIAGNWERKRPVWVMLMVNSLTEVDIKSRGVPVLDLFLAQEAERLRKQTGAVEKVEEQCHPLNGLNFSQVIFALNQTLLQQESLRAGSLQIPYTTEDLIKHYNCGDLSSVILSHDSSQVPNFINATLPPQERITAQEIDSYLRRELIYKRNERIGKRVKALLEEFPDKGFFFAFGAGHFMGNNTVLDVLRREGYEVEHAPAGRPIHKGKSKKTSTRPTLSTIFAPKVPTLEVPAPEAVSSGHSTLPPLVSRPGSADTPSEAEQRFRKKRRRSQRRPRLRQFSDLWVRLEESDIVPQLQVPVLDRHISTELRLPRRGHSHHSQMVASSACLSLWTPVFWVLVLAFQTETPLL [TRABD2A],-0.031,53.9,53.4,1.43,0.133,0.299
MSQWYELQQLDSKFLEQVHQLYDDSFPMEIRQYLAQWLEKQDWEHAANDVSFATIRFHDLLSQLDDQYSRFSLENNFLLQHNIRKSKRNLQDNFQEDPIQMSMIIYSCLKEERKILENAQRFNQAQSGNIQSTVMLDKQKELDSKVRNVKDKVMCIEHEIKSLEDLQDEYDFKCKTLQNREHETNGVAKSDQKQEQLLLKKMYLMLDNKRKEVVHKIIELLNVTELTQNALINDELVEWKRRQQSACIGGPPNACLDQLQNWFTIVAESLQQVRQQLKKLEELEQKYTYEHDPITKNKQVLWDRTFSLFQQLIQSSFVVERQPCMPTHPQRPLVLKTGVQFTVKLRLLVKLQELNYNLKVKVLFDKDVNERNTVKGFRKFNILGTHTKVMNMEESTNGSLAAEFRHLQLKEQKNAGTRTNEGPLIVTEELHSLSFETQLCQPGLVIDLETTSLPVVVISNVSQLPSGWASILWYNMLVAEPRNLSFFLTPPCARWAQLSEVLSWQFSSVTKRGLNVDQLNMLGEKLLGPNASPDGLIPWTRFCKENINDKNFPFWLWIESILELIKKHLLPLWNDGCIMGFISKERERALLKDQQPGTFLLRFSESSREGAITFTWVERSQNGGEPDFHAVEPYTKKELSAVTFPDIIRNYKVMAAENIPENPLKYLYPNIDKDHAFGKYYSRPKEAPEPMELDGPKGTGYIKTELISVSEVHPSRLQTTDNLLPMSPEEFDEVSRIVGSVEFDSMMNTV [STAT1],-0.17,47.7,48.5,1.15,3.11,0.104
MSRARSHLRAALFLAAASARGITTQVAARRGLSAWPVPQEPSMEYQDAVRMLNTLQTNAGYLEQVKRQRGDPQTQLEAMELYLARSGLQVEDLDRLNIIHVTGTKGKGSTCAFTECILRSYGLKTGFFSSPHLVQVRERIRINGQPISPELFTKYFWRLYHRLEETKDGSCVSMPPYFRFLTLMAFHVFLQEKVDLAVVEVGIGGAYDCTNIIRKPVVCGVSSLGIDHTSLLGDTVEKIAWQKGGIFKQGVPAFTVLQPEGPLAVLRDRAQQISCPLYLCPMLEALEEGGPPLTLGLEGEHQRSNAALALQLAHCWLQRQDRHGAGEPKASRPGLLWQLPLAPVFQPTSHMRLGLRNTEWPGRTQVLRRGPLTWYLDGAHTASSAQACVRWFRQALQGRERPSGGPEVRVLLFNATGDRDPAALLKLLQPCQFDYAVFCPNLTEVSSTGNADQQNFTVTLDQVLLRCLEHQQHWNHLDEEQASPDLWSAPSPEPGGSASLLLAPHPPHTCSASSLVFSCISHALQWISQGRDPIFQPPSPPKGLLTHPVAHSGASILREAAAIHVLVTGSLHLVGGVLKLLEPALSQ [FPGS],-0.165,49.7,48.1,0.537,1.93,0.114
